This assay concerns the target Cytosolic His-tag version of human IRE1α (IRE1ΔN-HIS) (human).

The values that follow come from article PMC2818874.

For “Cytosolic His-tag version of human IRE1α (IRE1ΔN-HIS) (domain or fragment)”, the stoichiometry N (in general, a count of units in the complex or per binding partner) worked out at 2.
